# Publication PMC3794996
# Assays:
# [1] = biological target: A/bat/Peru/10 N11 NAL ectodomain (neuraminidase-like protein of influenza virus A/flat-faced bat/Peru/033/2010, H18N11) (influenza A virus A/flat-faced bat/Peru/033/2010 (H18N11)); assay: crystal structure
# [2] = biological target: A/bat/Peru/10 N11 NAL protein with ectodomain plus stalk region (influenza A virus A/flat-faced bat/Peru/033/2010 (H18N11))
# [3] = biological target: A/bat/Peru/10 H18 HA ectodomain (hemagglutinin of influenza virus A/flat-faced bat/Peru/033/2010, H18N11) (influenza A virus A/flat-faced bat/Peru/033/2010 (H18N11)); assay: crystal structure
substance,measurement,setting,value
"A/bat/Peru/10 N11 NAL ectodomain (neuraminidase-like protein of influenza virus A/flat-faced bat/Peru/033/2010, H18N11) (domain or fragment)",stoichiometry N,[1],4
A/bat/Peru/10 N11 NAL protein with ectodomain plus stalk region (domain or fragment),stoichiometry N,[2],4
"A/bat/Peru/10 H18 HA ectodomain (hemagglutinin of influenza virus A/flat-faced bat/Peru/033/2010, H18N11) (domain or fragment)",stoichiometry N,[3],3
